Assay results taken from patent publication US20260258128A1.

How the values were obtained:
[1] = target: human CD3εδ (human) (UniProt P07766); assay: SPR (Biacore T200), binding to CD3εδ against binding to CD3εγ
[2] = target: CD3 on T cells of human peripheral blood mononuclear cells (human) (UniProt P07766); assay: cell-based or functional assay
Sequence of CD3 on T cells of human peripheral blood mononuclear cells (human) (P07766 23-207): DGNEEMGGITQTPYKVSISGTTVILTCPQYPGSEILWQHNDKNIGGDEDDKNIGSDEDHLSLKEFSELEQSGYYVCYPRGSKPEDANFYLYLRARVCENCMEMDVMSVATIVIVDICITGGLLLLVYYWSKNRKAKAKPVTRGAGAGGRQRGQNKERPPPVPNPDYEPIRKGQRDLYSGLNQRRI

Sequence of human CD3εδ (human) (P07766 23-126, stated change not applied, chain 1 of 2): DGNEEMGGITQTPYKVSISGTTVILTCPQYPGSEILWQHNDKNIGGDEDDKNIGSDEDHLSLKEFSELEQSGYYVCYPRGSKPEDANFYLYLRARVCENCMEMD
Sequence of human CD3εδ (human) (P04234 22-105, stated change not applied, chain 2 of 2, further chain): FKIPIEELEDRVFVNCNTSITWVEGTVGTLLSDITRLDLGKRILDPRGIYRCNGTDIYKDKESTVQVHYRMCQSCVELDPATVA

ratio of the binding strength to CD3εδ/binding strength to CD3εγ [1]: 19.3 fold
IFNγ release EC50 [2]: 3 pM
IFNγ release Maximum concentration [2]: 16 ng/mL
T cell activation (CD3+ CD8+ CD69+), human PBMC only, flow cytometry [2]: 60%
Substance: CD3 (UCHT1)-binding monoclonal antibody
Death of cancer cells EC50 (MDA-MB-231 + human PBMC, flow cytometry) [2]: 0.5 pM
Death of cancer cells Emax (%) [2]: 46%
